Data from IntAct's records for PubMed 15328537.

B1: Emerin (Homo sapiens), P50402 (parent)
chain: MDNYADLSDTELTTLLRRYNIPHGPVVGSTRRLYEKKIFEYETQRRRLSPPSSSAASSYSFSDLNSTRGDADMYDLPKKEDALLYQSKGYNDDYYEESYFTTRTYGEPESAGPSRAVRQSVTSFPDADAFHHQVHDDDLLSSSEEECKDRERPMYGRDSAYQSITHYRPVSASRSSLDLSYYPTSSSTSFMSSSSSSSSWLTRRAIRPENRAPGAGLGQDRQVPLWGQLLLFLVFVIVLFFIYHFMQAEEGNPF

Variants of: B1
Settings: with acts_rabit ACTA1, P68135
In the case of MDNYADLSDTELTTLLRRYNIPHGPVVGSTRRLYEKKIFEYETQRRRLSPPSSSAASSYSFSDLNSTRGDADMYDLPKKEDALLYQSKGYNDDYYEESYFTTRTYGEPESAGPSRAVRQSVTSFPDADAFHHHVHDDDLLSSSEEECKDRERPMYGRDSAYQSITHYRPVSASRSSLDLSYYPTSSSTSFMSSSSSSSSWLTRRAIRPENRAPGAGLGQDRQVPLWGQLLLFLVFVIVLFFIYHFMQAEEGNPF [Q133H], the “effect of a mutation on the interaction” value is reported as “disrupting interaction”.
